Data on six molecules can be found in patent EP0808367B1 (MILLENNIUM PHARMACEUTICALS, INC., dated 2007).

In assay [1] the target is T1, human α4β7 integrin (human, UniProt P13612 34-1032; P26010 20-798).
T1 construct: whole, on cells; also called α4β7 on RPMI 8866 cells; α4β7 on HuT 78 cells
The experiment in a line: RPMI 8866 adhesion to chimera on protein A plate; supernatant 1:2; preincubated with control anti-VCAM-1 MAb 2G7 (-). To be noted: scale: raw fluorescence.

Assay [2] has as its target T1, human α4β7 integrin. The assay can be described thus: RPMI 8866 adhesion to chimera on protein A plate; supernatant 1:4; preincubated with control anti-VCAM-1 MAb 2G7 (-). To be noted: scale: raw fluorescence.
The target of assay [3] is T1, human α4β7 integrin. The experiment in a line: RPMI 8866 adhesion to chimera on protein A plate; supernatant 1:8; preincubated with control anti-VCAM-1 MAb 2G7 (-). To be noted: scale: raw fluorescence.
In assay [4] the target is T1, human α4β7 integrin. The assay can be described thus: RPMI 8866 adhesion to chimera on protein A plate; supernatant 1:16; preincubated with control anti-VCAM-1 MAb 2G7 (-). To be noted: scale: raw fluorescence.
Assay [5] addresses T1, human α4β7 integrin. The experiment in a line: RPMI 8866 adhesion to chimera on protein A plate; supernatant 1:32; preincubated with control anti-VCAM-1 MAb 2G7 (-). To be noted: scale: raw fluorescence.
The target in assay [6] is T1, human α4β7 integrin. The experiment in a line: RPMI 8866 adhesion to chimera on protein A plate; supernatant neat; preincubated with control anti-VCAM-1 MAb 2G7 (-). To be noted: scale: raw fluorescence.
The target of assay [7] is T1, human α4β7 integrin. The assay can be described thus: RPMI 8866 adhesion to chimera on protein A plate; supernatant 1:2; preincubated with blocking anti-human MAdCAM MAb 10G3 (+). To be noted: scale: raw fluorescence.
Assay [8] addresses T1, human α4β7 integrin. The experiment in a line: RPMI 8866 adhesion to chimera on protein A plate; supernatant 1:4; preincubated with blocking anti-human MAdCAM MAb 10G3 (+). To be noted: scale: raw fluorescence.
In assay [9] the target is T1, human α4β7 integrin. The experiment in a line: RPMI 8866 adhesion to chimera on protein A plate; supernatant 1:8; preincubated with blocking anti-human MAdCAM MAb 10G3 (+). To be noted: scale: raw fluorescence.
Assay [10] addresses T1, human α4β7 integrin. The assay can be described thus: RPMI 8866 adhesion to chimera on protein A plate; supernatant 1:16; preincubated with blocking anti-human MAdCAM MAb 10G3 (+). To be noted: scale: raw fluorescence.
Assay [11] deals with T1, human α4β7 integrin. The experiment in a line: RPMI 8866 adhesion to chimera on protein A plate; supernatant 1:32; preincubated with blocking anti-human MAdCAM MAb 10G3 (+). To be noted: scale: raw fluorescence.
The target in assay [12] is T1, human α4β7 integrin. The assay can be described thus: RPMI 8866 adhesion to chimera on protein A plate; supernatant neat; preincubated with blocking anti-human MAdCAM MAb 10G3 (+). To be noted: scale: raw fluorescence.
Assay [13] deals with T1, human α4β7 integrin. The experiment in a line: RPMI 8866 adhesion to chimera on protein A plate; chimera 1:2; preincubated with control anti-VCAM-1 MAb 2G7 (-). To be noted: scale: raw fluorescence.
The target in assay [14] is T1, human α4β7 integrin. The assay can be described thus: RPMI 8866 adhesion to chimera on protein A plate; chimera 1:4; preincubated with control anti-VCAM-1 MAb 2G7 (-). To be noted: scale: raw fluorescence.
The target of assay [15] is T1, human α4β7 integrin. The assay can be described thus: RPMI 8866 adhesion to chimera on protein A plate; chimera 1:8; preincubated with control anti-VCAM-1 MAb 2G7 (-). To be noted: scale: raw fluorescence.
In assay [16] the target is T1, human α4β7 integrin. The assay can be described thus: RPMI 8866 adhesion to chimera on protein A plate; chimera 1:16; preincubated with control anti-VCAM-1 MAb 2G7 (-). To be noted: scale: raw fluorescence.
The target of assay [17] is T1, human α4β7 integrin. The experiment in a line: RPMI 8866 adhesion to chimera on protein A plate; chimera 1:32; preincubated with control anti-VCAM-1 MAb 2G7 (-). To be noted: scale: raw fluorescence.
Assay [18] addresses T1, human α4β7 integrin. The assay can be described thus: RPMI 8866 adhesion to chimera on protein A plate; chimera neat; preincubated with control anti-VCAM-1 MAb 2G7 (-). To be noted: scale: raw fluorescence.
Assay [19] concerns the target T1, human α4β7 integrin. The experiment in a line: RPMI 8866 adhesion to chimera on protein A plate; chimera 1:2; preincubated with blocking anti-human MAdCAM MAb 10G3 (+). To be noted: scale: raw fluorescence.
The target in assay [20] is T1, human α4β7 integrin. The assay can be described thus: RPMI 8866 adhesion to chimera on protein A plate; chimera 1:4; preincubated with blocking anti-human MAdCAM MAb 10G3 (+). To be noted: scale: raw fluorescence.
For assay [21], the target named is T1, human α4β7 integrin. The assay can be described thus: RPMI 8866 adhesion to chimera on protein A plate; chimera 1:8; preincubated with blocking anti-human MAdCAM MAb 10G3 (+). To be noted: scale: raw fluorescence.
The target of assay [22] is T1, human α4β7 integrin. The experiment in a line: RPMI 8866 adhesion to chimera on protein A plate; chimera 1:16; preincubated with blocking anti-human MAdCAM MAb 10G3 (+). To be noted: scale: raw fluorescence.
Assay [23] deals with T1, human α4β7 integrin. The assay can be described thus: RPMI 8866 adhesion to chimera on protein A plate; chimera 1:32; preincubated with blocking anti-human MAdCAM MAb 10G3 (+). To be noted: scale: raw fluorescence.
The target of assay [24] is T1, human α4β7 integrin. The assay can be described thus: RPMI 8866 adhesion to chimera on protein A plate; chimera neat; preincubated with blocking anti-human MAdCAM MAb 10G3 (+). To be noted: scale: raw fluorescence.
The target in assay [25] is T1, human α4β7 integrin. The assay can be described thus: cell adhesion assay, CHO/P transfectants.
In a further assay the target is T2, human α4β1 integrin (human, UniProt P13612 34-1032; P05556 21-798).
T2 construct: whole, on cells; Carried by Jurkat and Ramos cells, which express α4β1 and not α4β7; also called α4β1 on Jurkat cells; α4β1 on Ramos cells
The assay can be described thus: Figure 4B: Jurkat adhesion to CHO/P transfectants.

The target in assay [26] is T1, human α4β7 integrin. The experiment in a line: RPMI 8866 adhesion to CHO/P transfectants, 4°C.

T1 sequence (P13612 34-1032, chain 1 of 2): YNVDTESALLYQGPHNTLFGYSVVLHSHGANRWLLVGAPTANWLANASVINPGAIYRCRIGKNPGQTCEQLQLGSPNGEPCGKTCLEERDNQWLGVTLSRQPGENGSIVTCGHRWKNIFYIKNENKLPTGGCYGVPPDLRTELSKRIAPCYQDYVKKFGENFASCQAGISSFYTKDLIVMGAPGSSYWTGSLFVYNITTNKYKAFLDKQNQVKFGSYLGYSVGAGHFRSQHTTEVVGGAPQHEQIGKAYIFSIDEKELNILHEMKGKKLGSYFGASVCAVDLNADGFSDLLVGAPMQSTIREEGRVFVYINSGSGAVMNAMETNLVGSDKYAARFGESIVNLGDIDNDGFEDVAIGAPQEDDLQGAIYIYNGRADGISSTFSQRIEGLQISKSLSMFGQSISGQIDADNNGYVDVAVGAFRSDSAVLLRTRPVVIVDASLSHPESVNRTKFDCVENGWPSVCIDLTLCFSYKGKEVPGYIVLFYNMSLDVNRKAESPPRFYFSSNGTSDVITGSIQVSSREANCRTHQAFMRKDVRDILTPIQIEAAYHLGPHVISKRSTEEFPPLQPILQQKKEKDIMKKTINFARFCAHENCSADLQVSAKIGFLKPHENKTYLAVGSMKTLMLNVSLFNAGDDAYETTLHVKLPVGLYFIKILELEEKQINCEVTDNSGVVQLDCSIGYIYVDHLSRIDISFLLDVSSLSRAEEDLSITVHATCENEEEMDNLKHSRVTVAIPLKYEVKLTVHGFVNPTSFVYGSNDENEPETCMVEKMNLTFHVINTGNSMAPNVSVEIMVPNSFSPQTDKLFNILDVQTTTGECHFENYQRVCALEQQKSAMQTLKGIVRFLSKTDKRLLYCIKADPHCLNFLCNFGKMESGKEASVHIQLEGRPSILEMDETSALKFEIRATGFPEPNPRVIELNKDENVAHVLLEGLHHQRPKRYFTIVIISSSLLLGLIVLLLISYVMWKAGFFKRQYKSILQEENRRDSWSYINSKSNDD
T1 sequence (P26010 20-798, chain 2 of 2): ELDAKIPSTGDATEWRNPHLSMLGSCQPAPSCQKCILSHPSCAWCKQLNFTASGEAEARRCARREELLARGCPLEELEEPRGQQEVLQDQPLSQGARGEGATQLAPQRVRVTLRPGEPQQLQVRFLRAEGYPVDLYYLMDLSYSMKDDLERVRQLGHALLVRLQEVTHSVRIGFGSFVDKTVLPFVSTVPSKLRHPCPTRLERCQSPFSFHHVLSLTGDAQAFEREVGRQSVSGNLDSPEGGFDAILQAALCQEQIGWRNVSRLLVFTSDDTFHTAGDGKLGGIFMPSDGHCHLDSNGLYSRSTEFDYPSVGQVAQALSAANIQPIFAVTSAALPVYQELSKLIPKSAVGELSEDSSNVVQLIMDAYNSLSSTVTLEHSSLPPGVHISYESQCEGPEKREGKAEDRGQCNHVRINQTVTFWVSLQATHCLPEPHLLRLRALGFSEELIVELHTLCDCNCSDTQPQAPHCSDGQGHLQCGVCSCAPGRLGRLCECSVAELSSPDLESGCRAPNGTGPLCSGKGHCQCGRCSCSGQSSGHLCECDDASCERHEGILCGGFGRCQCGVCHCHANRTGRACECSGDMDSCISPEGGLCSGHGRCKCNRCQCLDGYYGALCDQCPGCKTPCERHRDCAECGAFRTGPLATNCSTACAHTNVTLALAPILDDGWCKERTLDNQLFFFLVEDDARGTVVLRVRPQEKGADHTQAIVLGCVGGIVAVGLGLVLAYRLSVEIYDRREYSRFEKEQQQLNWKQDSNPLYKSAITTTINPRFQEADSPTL
T2 sequence (P13612 34-1032, chain 1 of 2): as the sequence (P13612 34-1032, chain 1 of 2) above
T2 sequence (P05556 21-798, chain 2 of 2): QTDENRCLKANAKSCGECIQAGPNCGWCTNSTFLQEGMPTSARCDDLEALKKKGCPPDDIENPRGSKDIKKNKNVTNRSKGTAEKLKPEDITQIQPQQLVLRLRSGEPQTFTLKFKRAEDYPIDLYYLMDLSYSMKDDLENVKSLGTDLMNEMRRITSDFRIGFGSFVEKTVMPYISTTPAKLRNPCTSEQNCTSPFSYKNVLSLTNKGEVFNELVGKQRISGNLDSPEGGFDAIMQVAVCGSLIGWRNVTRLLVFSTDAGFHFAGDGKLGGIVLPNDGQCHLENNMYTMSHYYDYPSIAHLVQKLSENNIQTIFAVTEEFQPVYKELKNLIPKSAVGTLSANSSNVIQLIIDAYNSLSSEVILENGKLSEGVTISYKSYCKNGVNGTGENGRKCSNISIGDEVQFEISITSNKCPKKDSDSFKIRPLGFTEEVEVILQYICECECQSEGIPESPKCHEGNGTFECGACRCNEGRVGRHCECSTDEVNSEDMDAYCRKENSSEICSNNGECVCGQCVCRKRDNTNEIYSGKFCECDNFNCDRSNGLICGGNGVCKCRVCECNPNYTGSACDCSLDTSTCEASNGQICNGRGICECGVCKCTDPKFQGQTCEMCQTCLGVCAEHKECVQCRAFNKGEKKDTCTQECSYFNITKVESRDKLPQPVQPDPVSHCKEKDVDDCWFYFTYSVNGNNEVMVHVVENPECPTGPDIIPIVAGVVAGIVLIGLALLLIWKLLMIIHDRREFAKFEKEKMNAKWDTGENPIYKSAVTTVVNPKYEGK

Take “human MAdCAM-Ig chimera in the supernatant of a cloned NSO line, Sample B (Fc fusion)”: the fluorescence of bound RPMI 8866 cells is 196000 in the assay with human α4β7 integrin [1]; 196000 with human α4β7 integrin [2]; 196000 in the assay with human α4β7 integrin [3]; 52100 with human α4β7 integrin [4]; 2930 with human α4β7 integrin [5]; 196000 in the assay with human α4β7 integrin [6]. For the same molecule, the fluorescence of bound RPMI 8866 cells with human α4β7 integrin [7] worked out at 3630; with human α4β7 integrin [8], 3270; in the assay with human α4β7 integrin [9] it was 2980; with human α4β7 integrin [10], 1650; with human α4β7 integrin [11] it was 1520; with human α4β7 integrin [12], 6530.

Turning to “human MAdCAM-Ig chimera, construct HuMAdIg21 (entire extracellular domain of human MAdCAM-1 fused to Fc-mutated human IgG1 constant region) (from UniProt P01857 1-330) (Fc fusion)”, the fluorescence of bound RPMI 8866 cells stood at 196000 in the assay with human α4β7 integrin [13]; 196000 in the assay with human α4β7 integrin [14]; 18600 in the assay with human α4β7 integrin [15]; 4250 in the assay with human α4β7 integrin [16]; 3560 with human α4β7 integrin [17]; 196000 in the assay with human α4β7 integrin [18]. Further, the fluorescence of bound RPMI 8866 cells came to 3090 with human α4β7 integrin [19]; 1750 in the assay with human α4β7 integrin [20]; 2200 with human α4β7 integrin [21]; 482 with human α4β7 integrin [22]; 564 in the assay with human α4β7 integrin [23]; 3860 with human α4β7 integrin [24].

On to “human MAdCAM-Ig chimera in the supernatant of a cloned NSO line, Sample D (Fc fusion)”, for which the fluorescence of bound RPMI 8866 cells in the assay with human α4β7 integrin [1] was found to be 30800; in the assay with human α4β7 integrin [2], 46900; with human α4β7 integrin [3], 16300; with human α4β7 integrin [4], 5470; with human α4β7 integrin [5], 2660; in the assay with human α4β7 integrin [6] it was 196000. The fluorescence of bound RPMI 8866 cells in the assay with human α4β7 integrin [7] was determined as 6790; with human α4β7 integrin [8], 6020; with human α4β7 integrin [9], 4510; with human α4β7 integrin [10] it was 6550; with human α4β7 integrin [11] it was 5120; with human α4β7 integrin [12], 7350.

Take “human MAdCAM-Ig chimera in the supernatant of a cloned NSO line, Sample C (Fc fusion)”: the fluorescence of bound RPMI 8866 cells worked out at 196000 with human α4β7 integrin [1]; 35500 with human α4β7 integrin [2]; 9570 with human α4β7 integrin [3]; 21800 in the assay with human α4β7 integrin [4]; 1930 in the assay with human α4β7 integrin [5]; 196000 with human α4β7 integrin [6]. The fluorescence of bound RPMI 8866 cells with human α4β7 integrin [7] was found to be 4090; in the assay with human α4β7 integrin [8], 3920; with human α4β7 integrin [9] it was 3490; with human α4β7 integrin [10] it was 2440; with human α4β7 integrin [11], 2570; with human α4β7 integrin [12] it was 4570.

B1: seven domain human VCAM-1 (receptor, UniProt P19320 25-739, looked up)
chain: FKIETTPESRYLAQIGDSVSLTCSTTGCESPFFSWRTQIDSPLNGKVTNEGTTSTLTMNPVSFGNEHSYLCTATCESRKLEKGIQVEIYSFPKDPEIHLSGPLEAGKPITVKCSVADVYPFDRLEIDLLKGDHLMKSQEFLEDADRKSLETKSLEVTFTPVIEDIGKVLVCRAKLHIDEMDSVPTVRQAVKELQVYISPKNTVISVNPSTKLQEGGSVTMTCSSEGLPAPEIFWSKKLDNGNLQHLSGNATLTLIAMRMEDSGIYVCEGVNLIGKNRKEVELIVQEKPFTVEISPGPRIAAQIGDSVMLTCSVMGCESPSFSWRTQIDSPLSGKVRSEGTNSTLTLSPVSFENEHSYLCTVTCGHKKLEKGIQVELYSFPRDPEIEMSGGLVNGSSVTVSCKVPSVYPLDRLEIELLKGETILENIEFLEDTDMKSLENKSLEMTFIPTIEDTGKALVCQAKLHIDDMEFEPKQRQSTQTLYVNVAPRDTTVLVSPSSILEEGSSVNMTCLSQGFPAPKILWSRQLPNGELQPLSENATLTLISTKMEDSGVYLCEGINQAGRSRKEVELIIQVTPKDIKLTAFPSESVKEGDTVIISCTCGNVPETWIILKKKAETGDTVLKSIDGAYTIRKAQLKDAGVYECESKNKVGSQLRSLTLDVQGRENNKDYFSPELLVLYFASSLIIPAIGMIIYFARKANMKGSYSLVEAQKSKV
notes: whole, on cells; Expressed on transiently transfected CHO/P cells; also called pCD3VCAM
Take B1: the binding result with human α4β7 integrin [25] was “no binding”; in the assay with human α4β1 integrin, “binds”.

B2: murine MAdCAM-1 (receptor, UniProt Q61826 22-405, looked up)
chain: QSFQVNPPESEVAVAMGTSLQITCSMSCDEGVARVHWRGLDTSLGSVQTLPGSSILSVRGMLSDTGTPVCVGSCGSRSFQHSVKILVYAFPDQLVVSPEFLVPGQDQVVSCTAHNIWPADPNSLSFALLLGEQRLEGAQALEPEQEEEIQEAEGTPLFRMTQRWRLPSLGTPAPPALHCQVTMQLPKLVLTHRKEIPVLQSQTSPKPPNTTSAEPYILTSSSTAEAVSTGLNITTLPSAPPYPKLSPRTLSSEGPCRPKIHQDLEAGWELLCEASCGPGVTVRWTLAPGDLATYHKREAGAQAWLSVLPPGPMVEGWFQCRQDPGGEVTNLYVPGQVTPNSSSTVVLWIGSLVLGLLALVFLAYRLWKCYRPGPRPDTSSCTHL
notes: whole, on cells; Expressed on transiently transfected CHO/P cells; also called pCDMAD-7
As for B2, the binding result with human α4β7 integrin [26] is reported as “binds”; in the assay with human α4β1 integrin, “no binding”.
